{"source": "IntAct's records for PubMed 9499404", "parents": {"B1": {"name": "Cell division control protein 53 (Saccharomyces cerevisiae), Q12018 (parent)", "chain": "MSETLPRSDDLEATWNFIEPGINQILGNEKNQASTSKRVYKILSPTMYMEVYTAIYNYCVNKSRSSGHFSTDSRTGQSTILVGSEIYEKLKNYLKNYILNFKQSNSETFLQFYVKRWKRFTIGAIFLNHAFDYMNRYWVQKERSDGKRHIFDVNTLCLMTWKEVMFDPSKDVLINELLDQVTLGREGQIIQRSNISTAIKSLVALGIDPQDLKKLNLNVYIQVFEKPFLKKTQEYYTQYTNDYLEKHSVTEYIFEAHEIIKREEKAMTIYWDDHTKKPLSMALNKVLITDHIEKLENEFVVLLDARDIEKITSLYALIRRDFTLIPRMASVFENYVKKTGENEISSLLAMHKHNIMKNENANPKKLALMTAHSLSPKDYIKKLLEVHDIFSKIFNESFPDDIPLAKALDNACGAFININEFALPAGSPKSATSKTSEMLAKYSDILLKKATKPEVASDMSDEDIITIFKYLTDKDAFETHYRRLFAKRLIHGTSTSAEDEENIIQRLQAANSMEYTGKITKMFQDIRLSKILEDDFAVALKNEPDYSKAKYPDLQPFVLAENMWPFSYQEVEFKLPKELVPSHEKLKESYSQKHNGRILKWLWPLCRGELKADIGKPGRMPFNFTVTLFQMAILLLYNDADVLTLENIQEGTSLTIQHIAAAMVPFIKFKLIQQVPPGLDALVKPETQFKLSRPYKALKTNINFASGVKNDILQSLSGGGHDNHGNKLGNKRLTEDERIEKELNTERQIFLEACIVRIMKAKRNLPHTTLVNECIAQSHQRFNAKVSMVKRAIDSLIQKGYLQRGDDGESYAYLA", "partner": "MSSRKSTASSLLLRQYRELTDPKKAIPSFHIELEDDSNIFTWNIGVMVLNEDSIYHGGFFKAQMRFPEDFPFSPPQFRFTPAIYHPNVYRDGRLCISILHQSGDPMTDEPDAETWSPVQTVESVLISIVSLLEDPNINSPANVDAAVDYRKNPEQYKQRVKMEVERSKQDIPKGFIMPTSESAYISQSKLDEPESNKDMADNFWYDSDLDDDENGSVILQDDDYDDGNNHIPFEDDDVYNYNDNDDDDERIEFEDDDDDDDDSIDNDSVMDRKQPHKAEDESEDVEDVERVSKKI"}}}
{"variants_of": "B1", "details": "with ubc3_yeast CDC34, P14682"}
{"variant": "R488C", "effect of a mutation on the interaction": "disrupting interaction"}
